Measured values reported in US20120149104A1 (ALLERGAN, published 2012).
Residue numbers refer to the chain shown, from its start.

Legend:
[1] = target: T1, SNAP-25 peptide comprising amino acids 134-197 of SEQ ID NO: 5 (human); assay: SPR (BIAcore 3000), peptide on CM5 chip, antibody in flow
[2] = target: SNAP-25 peptide comprising amino acids 134-206 of SEQ ID NO: 5 (human); assay: as above
[3] = target: T1, SNAP-25 peptide comprising amino acids …; assay: as above; remark: listed apart in the source
[4] = target: T2, SNAP-25206 uncleaved substrate (in PC12 cells) (UniProt P60881 1-206); assay: cell-based assay, Western blot of PC12 cells +/- GFP-BoNT/A-LC, ascites 1:100
T2 construct: domain: SNAP-25206 uncleaved substrate; also called uncleaved SNAP-25

[5] = target: T1, SNAP-25 peptide comprising amino acids …; assay: SPR (BIAcore 3000), peptide on CM5 chip, antibody in flow; value in parentheses, second determination not explained; value in parentheses (second set for 2E2A6; KD 0.405 nM, used in paragraph 239)
[6] = target: T1, SNAP-25 peptide comprising amino acids …; assay: SPR (BIAcore 3000), peptide on CM5 chip, antibody in flow; value in parentheses, second determination not explained

T2 sequence (P60881 whole entry): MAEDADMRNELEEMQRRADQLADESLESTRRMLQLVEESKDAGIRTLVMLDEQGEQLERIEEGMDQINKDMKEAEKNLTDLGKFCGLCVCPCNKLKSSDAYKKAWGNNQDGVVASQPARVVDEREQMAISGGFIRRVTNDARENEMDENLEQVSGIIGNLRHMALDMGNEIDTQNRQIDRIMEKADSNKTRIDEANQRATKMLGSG

B1: α-SNAP-25 monoclonal antibody 2E2A6 (antibody, V domains shown)
VH: QVQLQQSDAELVKPGASVKISCRASGYTFTDHSIHWVKQQPGQGLEWIGYIFPGNGNIEYNDKFKGKATLTADKSSGTAYMQLNSLTSEDSAVYFCKRMGYWGQGTSVTVSS
VL: DVLMTQTPLTLSVTIGQPASISCKSSQSLLYTNGKTYLTWLFQRPGQSPKRLIYLVSELDSGVPDRFSGSGSGTDFTLEITRVEAEDLGVYYCLQSAHFPFTFGSGTKLEIKR
Which Kd [1] does the source give for B1 here?
Its Kd is 0.09 nM.

What about the koff [1] of the same binder?
The koff was 0.000153 s⁻¹.

What about the kon [1] of the same binder?
The kon was 1.7e+06 M⁻¹ s⁻¹.

Does B1 bind [2]?
Result: no binding (tested: 10 µM)

What about the “fold difference of the off rate/dissociation constant against MC-6050 and MC-6053” value [3] of the same binder?
Its value is no less than 1 fold.

Does B1 bind [4]?
Result: no binding

What about the kon [5] of the same binder?
Its kon is 166000 M⁻¹ s⁻¹.

And the Kd [6]?
Its Kd is 0.405 nM.

What about the koff [6] of the same binder?
Its koff is 6.74e-05 s⁻¹.

B2: α-SNAP-25 monoclonal antibody 3C1A5 (antibody, V domains shown)
VH: QVKLQESGAELVKPGASVKISCKASGYTFTDHSIHWVKQKPGQGLEWIGYLFPGNGNFEYNEKFKGKATLTADKSSSTVYMYLNSLTSEDSAVYFCKRMGYWGQGTTVTVSS
VL: B1 VL with L3V, Y31N, F42I, K50Q, E58K, E79K, T81S, A97S
B2 was tested. Which Kd [1] did it give?
The Kd was 1.33 nM.

And the koff [1]?
The koff was 0.000288 s⁻¹.

And the kon [1]?
The kon was 217000 M⁻¹ s⁻¹.

Does B2 bind [2]?
Result: no binding (tested: 100 nM)

Does B2 bind [4]?
Result: no binding

B3: α-SNAP-25 monoclonal antibody 1D3B8 (antibody, V domains shown)
VH: QVKLQESGAELVKPGASVKISCKASGYIFTDHALHWVRQKPEQGLEWIGYIFPGNGNIEYNEKFKGKATLTADKSSSTAYMQLNSLTSGDSAMYFCKKMDYWGQGTTVTVSS
VL: DVLMTQTPLSLPVSLGDQASISCRSSQSIVHSNGNTYLEWYLQKPGQSPKLLIYKVSNRFSGVPDRFSGSGSGTDFTLKISRVEAEDLGVYYCFQGSHVPPTFGAGTKLELKR
With B3 as the binder, how does the Kd [1] read?
The Kd was 0.05 nM.

What about the koff [1] of the same binder?
The koff was 5.78e-05 s⁻¹.

And the kon [1]?
The kon was 1.06e+06 M⁻¹ s⁻¹.

Does B3 bind [2]?
Result: no binding (tested: 125 nM)

And the “fold difference of the equilibrium disassociation constant against MC-6050 and MC-6053” value [3]?
The value was roughly 10 fold.

Does B3 bind [4]?
Result: no binding

B4: α-SNAP-25 monoclonal antibody 2C9B10 (antibody, V domains shown)
VH: B2 VH with V79A, Y82H, R98K, G100D
VL: DIQMTQSPASLSASVGETVTITCRTTENIYSYFVWSQQRQGKSPQLRVYNAKSLAEGVPSSFNVSVSGTQFSLKINSLQPEDFGTYHCQHHYGTPYTFGGGTRLEIRR
For B4, which Kd [1] is on record?
Its Kd is 27.1 nM.

And the koff [1]?
The koff was 0.000311 s⁻¹.

And the kon [1]?
The kon was 11500 M⁻¹ s⁻¹.

Does B4 bind [4]?
Result: no binding
